Reference: patent US20140179896A1 (published 2014)
Positions count from the first letter of the chain named.

Tests used:
[1] = target: T1, human vascular endothelial growth factor receptor-2 Fc chimera (KDR-Fc) (human, UniProt P35968 20-764); assay: radioactive equilibrium binding assay
T1 construct: range 1-764; purchased from R&D Systems; also called hKDR; human VEGF-R2-Fc; not shown: human IgG1 Fc
Protocol: (§1) To prepare ³⁵S-labeled binding proteins for analysis, mRNA was prepared as described above for RNA-protein fusion production but the linker ligation step was omitted. The mRNA was expressed using rabbit reticulocyte lysate translation kit (Ambion) in the presence of ³⁵S-labeled Met at 30° C. for 1 hour. Expressed protein was purified on M2-agarose Flag beads (Sigma) as described above. This procedure produced the encoded protein without the nucleic acid tail. In a direct binding assay, VEGF-R2-Fc fusions in concentrations ranging from 0 to 200 nM were added to a constant concentration of the purified protein (0.2 or 0.5 nM) and incubated at 30° C. for 1 hour in buffer B. The receptor-binder complexes were captured using Protein A magnetic beads for another 10 minutes at room temperature using a Kingfisher™ The beads were washed with six reaction volumes of buffer B. The protein was eluted from the beads with 100 μL of 0.1 M KOH. […] of the reaction mixture and elution were dried onto a LumaPlate-96 (Packard) and the amount of ³⁵S on the plate was measured using a TopCount NXT instrument (Packard). The amount of fibronectin-based scaffold protein bound to the target was estimated as a percent of radioactivity eluted from Protein A magnetic beads compare to radioactivity in the reaction mixture. Nonspecific binding of fibronectin-based scaffold proteins to the beads was determined by measuring binding in the absence of KDR-Fc and represented less than 1-2% of the input. Specific binding was obtained through subtraction of nonspecific binding from total binding. Data was analyzed using the GraphPad Prizm software (GraphPad Software, Inc, San Diego, Calif.), fitted using a one site, non-linear binding equation.
T1 sequence (P35968 20-764 limits assumed, change not shown, form in doubt): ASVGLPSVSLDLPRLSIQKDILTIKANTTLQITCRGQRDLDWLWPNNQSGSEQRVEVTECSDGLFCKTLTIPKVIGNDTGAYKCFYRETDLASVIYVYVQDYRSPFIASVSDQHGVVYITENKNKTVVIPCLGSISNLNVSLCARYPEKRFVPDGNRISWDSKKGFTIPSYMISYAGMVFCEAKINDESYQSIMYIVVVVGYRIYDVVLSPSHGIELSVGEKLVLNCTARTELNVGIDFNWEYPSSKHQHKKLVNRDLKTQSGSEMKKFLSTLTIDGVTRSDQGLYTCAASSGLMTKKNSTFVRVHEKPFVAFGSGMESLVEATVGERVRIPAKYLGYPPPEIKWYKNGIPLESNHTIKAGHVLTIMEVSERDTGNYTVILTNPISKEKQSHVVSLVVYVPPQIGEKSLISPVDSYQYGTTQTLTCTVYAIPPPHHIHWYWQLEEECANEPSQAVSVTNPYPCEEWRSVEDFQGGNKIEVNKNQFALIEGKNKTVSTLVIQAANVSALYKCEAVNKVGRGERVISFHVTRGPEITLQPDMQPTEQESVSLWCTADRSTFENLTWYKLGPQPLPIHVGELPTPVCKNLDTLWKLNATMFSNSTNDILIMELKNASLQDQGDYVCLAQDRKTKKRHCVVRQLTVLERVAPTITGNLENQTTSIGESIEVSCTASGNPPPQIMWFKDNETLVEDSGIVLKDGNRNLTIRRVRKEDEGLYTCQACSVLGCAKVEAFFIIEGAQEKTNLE

[2] = target: T2, mouse vascular endothelial growth factor receptor-2 Fc chimera (Flk-1-Fc) (mouse, UniProt P35918 20-762); assay: radioactive equilibrium binding assay
T2 construct: purchased from R&D Systems; also called mouse VEGF-R2-Fc; not shown: Fc part of the purchased chimera
Protocol: as §1
T2 sequence (P35918 20-762, change not shown): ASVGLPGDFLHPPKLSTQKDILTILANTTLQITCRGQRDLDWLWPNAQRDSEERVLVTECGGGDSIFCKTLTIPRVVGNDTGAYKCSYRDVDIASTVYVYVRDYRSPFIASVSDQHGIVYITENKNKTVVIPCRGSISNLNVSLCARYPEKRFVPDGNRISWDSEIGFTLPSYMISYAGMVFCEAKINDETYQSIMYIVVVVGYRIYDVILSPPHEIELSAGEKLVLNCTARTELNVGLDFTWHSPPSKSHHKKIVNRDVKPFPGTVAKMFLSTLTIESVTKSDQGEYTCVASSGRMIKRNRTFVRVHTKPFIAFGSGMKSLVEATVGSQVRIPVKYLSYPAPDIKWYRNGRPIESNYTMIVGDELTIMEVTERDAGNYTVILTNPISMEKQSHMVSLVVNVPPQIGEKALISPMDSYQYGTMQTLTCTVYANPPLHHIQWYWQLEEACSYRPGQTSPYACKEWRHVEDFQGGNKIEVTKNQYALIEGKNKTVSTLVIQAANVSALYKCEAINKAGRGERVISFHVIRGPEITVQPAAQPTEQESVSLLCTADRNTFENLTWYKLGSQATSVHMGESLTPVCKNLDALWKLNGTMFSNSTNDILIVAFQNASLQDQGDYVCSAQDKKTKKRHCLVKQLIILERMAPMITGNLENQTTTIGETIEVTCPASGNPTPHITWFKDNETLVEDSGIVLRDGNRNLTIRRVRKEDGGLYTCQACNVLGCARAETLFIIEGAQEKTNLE

[3] = target: T1, human vascular endothelial growth …; assay: BIAcore, target-Fc immobilized
Protocol: (§2) The binding kinetics of fibronectin-based scaffold proteins binding proteins to the target was measured using BIAcore 2000 biosensor (Pharmacia Biosensor). Human and mouse VEGF-R2-Fc fusions were immobilized onto a CM5 sensor chip and soluble binding proteins were injected at concentrations ranging from 0 to 100 nM in buffer 0 (10 mM HEPES, 150 mM NaCl, 0.005% Tween 20, pH 7.4). Sensorgrams were obtained at each concentration and were evaluated using a program, BIA Evaluation 2.0 (BIAcore), to determine the rate constants kₐ (kₒₙ) and kd (koff.) The affinity constant, KD was calculated from the ratio of rate constants […].

[4] = target: T2, mouse vascular endothelial growth …; assay: BIAcore, target-Fc immobilized
Protocol: as §2

[5] = target: T3, human vascular endothelial growth factor receptor-2 Fc chimera (KDR-Fc) (human, UniProt P35968 20-764); assay: radioactive equilibrium binding assay, KDR-Fc
T3 construct: range 1-764; also called human VEGFR-2; not shown: human IgG1 Fc
Protocol: as §1
T3 sequence (P35968 20-764 limits assumed, change not shown, form in doubt): as the sequence (P35968 20-764 limits assumed, change not shown, form in doubt) above

[6] = target: T4, mouse vascular endothelial growth factor receptor-2 Fc chimera (Flk-1-Fc) (mouse, UniProt P35918 20-762); assay: radioactive equilibrium binding assay, 1 nM Flk-1-Fc, % of input bound
T4 construct: Bought from R&D Systems; also called mouse VEGFR-2; not shown: Fc part of the purchased chimera, not specified
Outline: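 ³⁵S-Met-labeled binder protein, made by reticulocyte-lysate translation and Flag-purified, held at 0.2 or 0.5 nM with receptor-Fc (0–200 nM) for 1 h at 30° C in buffer B. Complexes captured on Protein A beads, washed, KOH-eluted. Bound signal given as % of input radioactivity minus bead-only background; one-site fit.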
T4 sequence (P35918 20-762, change not shown): as the sequence (P35918 20-762, change not shown) above

[7] = target: T3, human vascular endothelial growth …; assay: radioactive equilibrium binding assay, 1 nM KDR-Fc, % of input bound
Outline: (§3)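 Receptor-Fc fusions titrated from 0 to 200 nM against a fixed 0.2 or 0.5 nM of ³⁵S-labeled scaffold protein for 1 h at 30° C. Protein A bead pull-down followed by scintillation counting of eluate versus reaction mixture. Specific binding is total minus no-receptor binding, fitted to a one-site nonlinear equation.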

[8] = target: T4, mouse vascular endothelial growth …; assay: radioactive equilibrium binding assay, Flk-1-Fc
Protocol: as §1

[9] = target: T5, human vascular endothelial growth factor receptor-2 Fc chimera (KDR-Fc) (human, UniProt P35968 20-764); assay: radioactive equilibrium binding, KDR-Fc
T5 construct: range 1-764; also called human VEGFR-2; VEGF-R2-Fc; not shown: human IgG1 Fc
Protocol: as §1
T5 sequence (P35968 20-764 limits assumed, change not shown, form in doubt): as the sequence (P35968 20-764 limits assumed, change not shown, form in doubt) above

[10] = target: T5, human vascular endothelial growth …; assay: radioactive equilibrium binding, 1 nM KDR-Fc
Outline: as §3

[11] = target: T6, human vascular endothelial growth factor receptor-2 Fc chimera (KDR-Fc) (human, UniProt P35968 20-764); assay: binding to 1 nM KDR-Fc, % of input; radioactive equilibrium binding (assay not given)
T6 construct: range 1-764; also called human VEGFR-2; hKDR; not shown: human IgG1 Fc
Protocol: as §1
T6 sequence (P35968 20-764 limits assumed, change not shown, form in doubt): as above

[12] = target: T7, mouse vascular endothelial growth factor receptor-2 Fc chimera (Flk-1-Fc) (mouse, UniProt P35918 20-762); assay: binding to 1 nM Flk-1-Fc, % of input; radioactive equilibrium binding (assay not given)
T7 construct: Purchased from R&D Systems; also called mouse VEGF-R2; not shown: Fc part of the purchased chimera
Protocol: as §1
T7 sequence (P35918 20-762, change not shown): as the sequence (P35918 20-762, change not shown) above

B1: E6 (designed binder)
chain: EVVAATPTSLLISWRHPHFPTRYYRITYGETGGNSPVQEFTVPLQPPTATISGLKPGVDYTITGYAVTDGWNGRLLSIPISINYRT
notes: Del 1-8 10Fn3 clone; Flag-tagged in vitro translated protein in the radioactive assay, His6-tagged E. coli protein in BIAcore; tags left out
B1 gave a Kd [1] of under 0.4 nM, a Kd [2] of 7.1 nM and a Kd [3] of 0.08 nM. It also gave a koff [3] of 6.7e-05 s⁻¹, a kon [3] of 890000 M⁻¹ s⁻¹ and a Kd [4] of 2.02 nM. It also gave a koff [4] of 0.00136 s⁻¹ and a kon [4] of 670000 M⁻¹ s⁻¹.

B2: E26 (designed binder)
chain: B1 chain with D69V, G70E, W71R, L75E, S77M, I78T
notes: 10Fn3 clone, Del 1-8
For B2, the Kd [5] was 1.66 nM, the “Binding to 1 nM Flk-1, %” value [6] was 20% and the “Binding to 1 nM KDR, %” value [7] was 27%. It also gave a Kd [8] of 2.05 nM.

B3: E9 (designed binder)
chain: B1 chain with D69E, G70E, W71R, L75T, S77R, I78T
notes: Del 1-8 10Fn3 clone; Flag-tagged in vitro translated protein in the radioactive assay; tag left out
Binder B3 has a Kd [1] of 2.4 nM and a Kd [2] of under 1.4 nM.

B4: E3 (designed binder)
chain: B1 chain with W71R, G73D, L75K, S77M, I78V
notes: 10Fn3 clone, Del 1-8
With B4 the Kd [5] was 0.96 nM, the “Binding to 1 nM Flk-1, %” value [6] was 14% and the “Binding to 1 nM KDR, %” value [7] was 37%. For the same binder, the Kd [8] was 5.4 nM.

B5: E6 (designed binder)
chain: B1 chain
notes: 10Fn3 clone, Del 1-8
For B5, the Kd [5] was 0.35 nM, the “Binding to 1 nM Flk-1, %” value [6] was 7% and the “Binding to 1 nM KDR, %” value [7] was 36%. The Kd [8] was 7.1 nM.

B6: K10 (designed binder)
chain: B1 chain with D69T, W71P, G73D, S77F, I78V
notes: Del 1-8
With B6 the Kd [9] was 0.57 nM and the “Binding to 1 nM KDR, %” value [10] was 33%.

B7: E25 (designed binder)
chain: B1 chain with D69L, G70E, W71R, L75E, S77M, I78T
notes: as for B1
B7 was tested, and the Kd [1] was under 1.6 nM, the Kd [2] was under 1.3 nM and the Kd [3] was 0.21 nM. For the same binder, the koff [3] was 5.2e-05 s⁻¹, the kon [3] was 250000 M⁻¹ s⁻¹ and the Kd [4] was 0.76 nM. For the same binder, the koff [4] was 0.000378 s⁻¹ and the kon [4] was 500000 M⁻¹ s⁻¹.

B8: E5 (designed binder)
chain: B1 chain with W71Q, S77N, I78V
notes: as for B3
B8 was tested, and the Kd [1] was under 0.4 nM and the Kd [2] was 3.2 nM.

B9: K1 (designed binder)
chain: B1 chain with D69M, W71L, N72Y, R74H, L75E, S77L, I78T
notes: Del 1-8
B9 was tested, and the Kd [9] was 0.55 nM and the “Binding to 1 nM KDR, %” value [10] was 48%.

B10: K13 (designed binder)
chain: B1 chain with D69L, G70A, W71L, N72K, R74H, L75E, S77L, I78T
notes: Del 1-8; 246 used
With B10 the Kd [9] was 0.58 nM and the “Binding to 1 nM KDR, %” value [10] was 17%.

B11: K5 (designed binder)
chain: B1 chain with D69M, W71P, G73D, R74N, L75E, S77L, I78T
notes: Del 1-8
With B11 the Kd [9] was 1.54 nM and the “Binding to 1 nM KDR, %” value [10] was 47%.

B12: K6 (designed binder)
chain: B1 chain with W71K, N72D, L75V, S77L, I78T
notes: Del 1-8
With B12 the Kd [9] was 0.93 nM and the “Binding to 1 nM KDR, %” value [10] was 27%.

B13: K3 (designed binder)
chain: B1 chain with D69A, N72D, G73D, R74H, L75E, S77F
notes: Del 1-8
In the case of B13, the Kd [9] is reported as 1.15 nM and the “Binding to 1 nM KDR, %” value [10] is reported as 45%.

B14: K12 (designed binder)
chain: B1 chain with G70V, W71Y, G73D, R74H, L75E, L76I, S77K, I78T
notes: Del 1-8
For B14, the Kd [9] was 0.62 nM and the “Binding to 1 nM KDR, %” value [10] was 29%.

B15: K8 (designed binder)
chain: B1 chain with D69V, G70T, W71H, R74H, L75P, S77M, I78T
notes: Del 1-8; 279 used
In the case of B15, the Kd [9] is reported as 3.3 nM and the “Binding to 1 nM KDR, %” value [10] is reported as 18%.

B16: E3 (designed binder)
chain: B1 chain with W71R, G73D, L75K, S77M, I78V
notes: as for B3
With B16 the Kd [1] was under 1 nM and the Kd [2] was 5.4 nM.

B17: K4 (designed binder)
chain: B1 chain with D69A, W71Y, G73D, R74Q, L75I, S77M, I78T
notes: Del 1-8
B17 was tested, and the Kd [9] was 1.95 nM and the “Binding to 1 nM KDR, %” value [10] was 38%.

B18: E28 (designed binder)
chain: B1 chain with D69L, G70E, W71R, L75E, S77M, I78V
notes: as for B3
With B18 the Kd [1] was under 1.6 nM and the Kd [2] was 2.1 nM.

B19: E19 (designed binder)
chain: B1 chain with D69V, G70E, W71R, L75H, S77M, I78T
notes: 10Fn3 clone, Del 1-8
With B19 the Kd [5] was 1.3 nM, the “Binding to 1 nM Flk-1, %” value [6] was 40% and the “Binding to 1 nM KDR, %” value [7] was 38%. For the same binder, the Kd [8] was 0.66 nM.

B20: K11 (designed binder)
chain: B1 chain with D69Q, G70A, W71P, G73D, L75V, S77Y, I78T
notes: Del 1-8
With B20 the Kd [9] was 1.16 nM and the “Binding to 1 nM KDR, %” value [10] was 24%.

B21: E18 (designed binder)
chain: B1 chain with D69V, G70E, W71R, L75E, S77N, I78T
notes: 10Fn3 clone, Del 1-8
In the case of B21, the Kd [5] is reported as 1.2 nM, the “Binding to 1 nM Flk-1, %” value [6] is reported as 29% and the “Binding to 1 nM KDR, %” value [7] is reported as 17%. It also gave a Kd [8] of 0.53 nM.

B22: K7 (designed binder)
chain: B1 chain with D69S, W71H, G73D, R74H, L75M, S77M
notes: Del 1-8
In the case of B22, the Kd [9] is reported as 2.2 nM and the “Binding to 1 nM KDR, %” value [10] is reported as 40%.

B23: E5 (designed binder)
chain: B1 chain with W71Q, S77N, I78V
notes: 10Fn3 clone, Del 1-8
For B23, the Kd [5] was 0.4 nM, the “Binding to 1 nM Flk-1, %” value [6] was 10% and the “Binding to 1 nM KDR, %” value [7] was 26%. It also gave a Kd [8] of 3.2 nM.

B24: K9 (designed binder)
chain: B1 chain with D69F, W71L, N72Y, R74K, L75E, S77L
notes: Del 1-8
B24 was tested, and the Kd [9] was 1.8 nM and the “Binding to 1 nM KDR, %” value [10] was 35%.

B25: K15 (designed binder)
chain: B1 chain with D69E, G70V, W71H, N72H, G73D, L75E, L76I, S77K, I78T
notes: Del 1-8
B25 was tested, and the Kd [9] was 0.35 nM and the “Binding to 1 nM KDR, %” value [10] was 25%.

B26: K14 (designed binder)
chain: B1 chain with D69R, G70E, W71E, G73D, R74H, L75E, S77L
notes: Del 1-8
For B26, the Kd [9] was 0.57 nM and the “Binding to 1 nM KDR, %” value [10] was 20%.

B27: K2 (designed binder)
chain: B1 chain with W71E, R74Q, L75F, S77L, I78V
notes: Del 1-8
In the case of B27, the Kd [9] is reported as 1.19 nM and the “Binding to 1 nM KDR, %” value [10] is reported as 48%.

B28: E9 (designed binder)
chain: B1 chain with D69E, G70E, W71R, L75T, S77R, I78T
notes: 10Fn3 clone, Del 1-8
For B28, the Kd [5] was 2.37 nM, the “Binding to 1 nM Flk-1, %” value [6] was 34% and the “Binding to 1 nM KDR, %” value [7] was 24%. The Kd [8] was 1.4 nM.

B29: E23 (designed binder)
chain: EVVAATPTSLLISWRHHPHFPTRYYRITYGETGGNSPVQEFTVPLQPPTATISGLKPGVDYTITGYAVTVHWNGRELMTPISINYRT
notes: Del 1-8 10Fn3 clone; Flag tag not included
B29 was tested, and the “Binding to 1 nM KDR, %” value [11] was 36% and the “Binding to 1 nM FLK, %” value [12] was 7%.
